± gives the standard error. This sample holds only a part of the variants without activity.
B1: glmS ribozyme (parent)
chain: AUAAAAGCGCCAGAACUACAGAAAUGUAGUUGACGAGGAGGAGGUUUAUCGAAUUUUCGGCGGAUGCCUCCAAA

Assays:
Conditions in all cases: with glucosamine-6-phosphate
glucosamine-6-phosphate [1] = variants of: B1; assay: self-cleavage kobs at 40 uM GlcN6P; higher = faster cleavage; RNA array
Outline: (§1)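 kcat and KM were obtained from weighted Michaelis–Menten fits across concentrations of kobs values. Those came from one- or two-exponential decay fits to per-tile medians normalised to baseline and to non-cleaving reference variants. The variants were barcoded ribozymes transcribed in situ by E. coli RNA polymerase on sequenced MiSeq chips and tracked through a hybridised Cy3 probe at 37 °C, with 40 μM to 10 mM glucosamine-6-phosphate in HEPES/KCl/Mg(OAc)2 buffer flowed in.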

glucosamine-6-phosphate [2] = variants of: B1; assay: self-cleavage kobs at 160 uM GlcN6P; higher = faster cleavage; RNA array
Outline: as §1

glucosamine-6-phosphate [3] = variants of: B1; assay: self-cleavage kobs at 640 uM GlcN6P; higher = faster cleavage; RNA array
Outline: as §1

glucosamine-6-phosphate [4] = variants of: B1; assay: self-cleavage kobs at 10000 uM GlcN6P; higher = faster cleavage; RNA array
Outline: as §1

glucosamine-6-phosphate [5] = variants of: B1; assay: self-cleavage kobs at 2500 uM GlcN6P; higher = faster cleavage; RNA array
Outline: as §1

Row | Variant | self-cleavage kobs at 40 uM GlcN6P (glucosamine-6-phosphate [1]) [s⁻¹] | self-cleavage kobs at 160 uM GlcN6P (glucosamine-6-phosphate [2]) [s⁻¹] | self-cleavage kobs at 640 uM GlcN6P (glucosamine-6-phosphate [3]) [s⁻¹] | self-cleavage kobs at 10000 uM GlcN6P (glucosamine-6-phosphate [4]) [s⁻¹] | self-cleavage kobs at 2500 uM GlcN6P (glucosamine-6-phosphate [5]) [s⁻¹]
1 | G37C U46A | < 1e-05 | < 1e-05 | < 1e-05 | < 1e-05 | 
2 | A33G G41A | < 1e-05 | < 1e-05 |  | < 1e-05 | 
3 | G41C G44C | < 1e-05 | < 1e-05 | < 1e-05 | < 1e-05 | < 1e-05
4 | U30C G43A | < 1e-05 | < 1e-05 |  | < 1e-05 | < 1e-05
5 | A15C G37A U57G C67G | < 1e-05 |  |  | < 1e-05 | 
6 | C16G C70U | 0.000111 ± 1.4e-05 | 0.000359 ± 6.2e-05 | 0.000455 ± 8e-05 | 0.00521 ± 0.001 | 0.000561 ± 9e-05
7 | A48C G63A C70A | < 1e-05 |  |  |  | 
8 | C34A A39G A64C | < 1e-05 |  | < 1e-05 | < 1e-05 | < 1e-05
9 | G41C U69A | < 1e-05 | < 1e-05 | < 1e-05 |  | 
10 | C8G G43C | < 1e-05 | < 1e-05 | < 1e-05 | < 1e-05 | < 1e-05
11 | A36C C58A U65A C68G | 0.000139 ± 4.3e-05 |  |  |  | 0.000116 ± 2.7e-05
12 | A14G G40A | 0.000801 ± 0.00011 | 0.00119 ± 0.00039 | 0.0045 ± 0.00098 | 0.0666 ± 0.029 | 0.00484 ± 0.0011
13 | C11A C34G G43C G51U G60C | < 1e-05 |  | < 1e-05 |  | 
14 | C8A G41U | < 1e-05 | < 1e-05 | < 1e-05 | < 1e-05 | < 1e-05
15 | G60C C67A C71U | < 1e-05 |  |  |  | 
16 | A12C U56G C68A C70A | < 1e-05 |  |  |  | 
17 | C8U U30A G62A U65A C71U | < 1e-05 |  |  |  | 
18 | A12C G29U | 0.000186 ± 2.6e-05 | 0.000725 ± 0.00022 | 0.00225 ± 0.00065 | 0.031 ± 0.014 | 0.00483 ± 0.0017
19 | A6C G13U A53U | < 1e-05 |  |  | < 1e-05 | 
20 | G13A C58U C67G | < 1e-05 |  |  |  | 
21 | G13C G38A C58U | < 1e-05 |  |  |  | 
22 | G43U C61A | < 1e-05 | < 1e-05 | < 1e-05 | < 1e-05 | < 1e-05

From the supplement of paper PMC7125110
